T1: human IL4 (human, UniProt P05112 25-153, biotinylated in the SPR and competition assays (sites not given))
T1 sequence: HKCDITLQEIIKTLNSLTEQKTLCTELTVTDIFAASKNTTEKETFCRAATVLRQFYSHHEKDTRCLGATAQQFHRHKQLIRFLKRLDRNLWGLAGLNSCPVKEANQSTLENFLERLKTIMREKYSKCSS


Assays:
[1] = target: T2, human IL13 (human, UniProt P35225 35-146, biotinylated in the SPR assays (sites not given)); test: cell-based or functional assay
[2] = target: cyno IL13 (cynomolgus monkey, UniProt Q0PW92 21-132); test: cell-based or functional assay
cyno IL13, sequence (Q0PW92 entry or part of it): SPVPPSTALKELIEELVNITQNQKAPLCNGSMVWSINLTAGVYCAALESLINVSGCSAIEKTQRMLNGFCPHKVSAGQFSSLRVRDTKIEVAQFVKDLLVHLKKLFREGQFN

[3] = target: T2, human IL13; test: SPR BIAcore, biotin-IL13 on SA chip, global fit
Procedure: Recombinant human IL13 (Peprotech) was minimally biotinylated on ice using sulfo-NHS-LCLC-Biotin and desalted into the experimental running buffer containing 10 mM HEPES, 150 mM NaCl, pH 7.4, 0.01% Tween-20, and 0.1 mg/mL BSA. Biotinylated IL13 was captured at three different surface densities (from about 150, 50, and 25 RU) onto three different BIAcore SA (streptavidin) sensor chips. Each binding protein sample was tested at 40 nM as the highest concentration in a 3-fold dilution series over the three different density IL13 surfaces. The dissociation phase for the highest concentration of the binding protein sample was monitored for one hour. The response data from each of the different density surfaces was globally fitted in order to extract estimates of the kinetic and affinity constants which are provided in Table 7 below.

[4] = target: T3, human IL13 R130Q (human, UniProt P35225 35-146, biotinylated (sites not given)); test: Luminex competition, 80 pM biotin-IL13 R130Q binding to IL13Ra2-Fc beads
T3 construct: Peprotech; also called IL13R13Q; R111Q
T3 sequence (P35225 35-146 limits assumed, stated change not applied): as the sequence (Q0PW92 entry or part of it) above, with S1G, K10R, V42M, N67S, R83H, V100L counted along it
Procedure: Binding protein inhibition of IL13 binding to Rα2 was assessed using IL13Rα2-Fc (R&D Systems) conjugated to carboxylated Luminex microspheres according to the manufacturer's protocol. For biotinylation of IL13, recombinant human IL13 R130Q (Peprotech) was biotinylated at a 4:1 ratio using EZ-Link NHS-LC-Biotin (Pierce, #21336) for 2 hours at RT. The protein was dialyzed in PBS overnight to remove excess biotinylation reagent. For neutralization experiments, 5000 IL13 Rα2-Fc conjugated beads in 50 μl were added to each well of a 96-well filter plate (Millipore). 50 μl of biotinylated human IL13 at 1 ng/ml (80 pM) was mixed with an appropriate dilution of binding protein in Luminex Assay Buffer (PBS, 1% BSA, pH 7.4). The plate was incubated for 1 hour at RT in the dark on a plate shaker, set to shake vigorously to avoid bead aggregation. The plate was washed 3 times with 150 μl of wash buffer (PBS, 1% BSA, pH 7.4, 0.05% Tween-20) using a vacuum manifold followed by the addition of 50 μl of Streptavidin PE at 25 μg/ml and incubated at RT for 20 minutes. The plates were washed again and 100 μl of sheath fluid was added and the plate was placed on the shaker for 1 minute. Plates were read using a Luminex® 100 system; data were plotted as a function of binding protein concentration. IC₅₀ values were determined by fitting the data to the equation for sigmoidal dose response using PRIZM software (GraphPAD PRIZM).

[5] = target: T1, human IL4; test: cell-based or functional assay
[6] = target: T1, human IL4; test: SPR ProteOn, biotin-IL4 on neutravidin chip, 1:1 fit
Procedure: Purified binders selected as “hits” were ranked by their affinity on a ProteOn XPR-36 instrument (Bio-Rad). ProteOn is an optical biosensor instrument that measures protein-protein interactions in real time, based on Surface Plasmon Resonance technology similar to Biacore (GE). A rapid experimental protocol was performed as follows: On a GLC sensor chip (Bio-Rad), Neutravidin (Thermo Scientific) was covalently immobilized to a density of >5000 RU using amine coupling chemistry as described by the manufacturer. On one flow cell, biotinylated IL4 (Peprotech) was immobilized to a level of 250 RU, while another flow cell was used as reference, with neutravidin immobilized only. […] The retrieved values were used to rank the AR proteins by their affinity.

[7] = target: T1, human IL4; test: Luminex competition, 67 pM biotin-IL4 binding to IL4RA-Fc beads
Procedure: For biotinylation of IL4, recombinant human IL4 (Peprotech) was biotinylated at a 4:1 ratio using EZ-Link NHS-LC-Biotin (Pierce, #21336) for 2 hours at RT. The protein was dialyzed in PBS overnight to remove excess biotinylation reagent. Competition binding for cynomologous IL4 (SEQ ID NO: 5) was performed using the isolated protein biotinylated in the same manner.
AR protein inhibition of IL4 binding to IL4 RA was assessed using IL4 RA-Fc (R&D Systems), comprising the Gly24-His232 which represents the ECD (SEQ ID NO: 5) fused to a human IgGl-Fc and therefor a disulfide linked homodimer. The protein was conjugated to carboxylated Luminex microspheres according to the manufacturer's protocol. For neutralization experiments, 5000 IL4RA-Fc conjugated beads in 50 μl were added to each well of a 96-well filter plate (Millipore). Biotinylated human IL4 was mixed with an appropriate dilution of AR protein in Luminex Assay Buffer (PBS, 1% BSA, pH 7.4) to give a final concentration of 67 pM IL4. The plate was incubated for 1 hour at RT in the dark on a plate shaker, set to shake vigorously to avoid bead aggregation. The plate was washed twice with 150 μl of wash buffer (PBS, 0.1% BSA, pH 7.4, 0.05% Tween-20) using a vacuum manifold followed by the addition of 50 μl of Streptavidin PE at 25 μg/ml and incubated at RT for 20 minutes. The plates were washed again and 150 μl of sheath fluid was added and the plate was placed on the shaker for 5 minute. Plates were read using a Luminex® 100 system; data were plotted as a function of AR protein concentration. IC₅₀ values were determined by fitting the data to the equation for sigmoidal dose response using PRISM software (GraphPAD PRISM) (Table 6).

T2 sequence (P35225 other isoform, or with tags, fused parts or gaps limits assumed): as the sequence (Q0PW92 entry or part of it) above, with S1G, K10R, V42M, N67S, R83H, V100L, Q110R counted along it

| Binder | STAT6 Phospho IC50 [1] | TARC expression IC50 [1] | Cyno IL13 STAT6 IC50 [2] | Kd [3] | koff [3] | kon [3] | IC50 [4] | A549 TARC Inhibition IC50 [5] | HEK Stat6 Inhibition IC50 [5] | Type 1 Complex inhibition IC50 [5] | Kd [6] | koff [6] | kon [6] | IC50 [7] |
| --- | --- | --- | --- | --- | --- | --- | --- | --- | --- | --- | --- | --- | --- | --- |
| 9E11 (designed binder, N-Cap-(AR)3-C-Cap) DLGKKLLEAARAGQDDEVRILMANGADVNASDIYGSTPLHLAARHGHLEIVEVLLKNGADVNANDMIGDTPLHLAAYHGHLEIVEVLLKHGADVNASDITGETPLHLAAHNGHLEIVEVLLKYGADVNAQDKFGKTAFDISIDNGNEDLAEILQKLN | 0.0009 nM | 0.109 nM | 0.0334 nM | 0.021 nM | 1.3e-05 s⁻¹ | 640000 M⁻¹ s⁻¹ | 0.0058 nM | – | – | – | – | – | – | – |
| 7D2 (designed binder, N-Cap-(AR)3-C-Cap) DLGKKLLEAARAGQDDEVRILMANGADVNAFDDFGSTPLHLAARSGHLEIVEVLLKHGADVNAHDMIGDTPLHLAAYHGHLEIVEVLLKYGADVNAKDTSGTTPLHLAADSGHLEIVEVLLKHGADVNAQDKFGKTAFDISIDNGNEDLAEILQKLN | 0.0048 nM | 0.0146 nM | 0.307 nM | 0.0955 nM | 0.000292 s⁻¹ | 3.06e+06 M⁻¹ s⁻¹ | 0.0083 nM | – | – | – | – | – | – | – |
| 5D12 (designed binder, N-Cap-(AR)3-C-Cap) DLGKKLLEAARAGQDDEVRILMANGADVNAVDDYGSTPLHLAARQGHLEIVEVLLKNGADVNADDFIGDTPLHLAAFKGHLEIVEVLLKNGADVNASDITGETPLHLAATAGHLEIVEVLLKHGADVNAQDKFGKTAFDISIDNGNEDLAEILQKLN | 0.0054 nM | 0.0341 nM | 0.159 nM | 0.168 nM | 0.000184 s⁻¹ | 1.1e+06 M⁻¹ s⁻¹ | 0.0102 nM | – | – | – | – | – | – | – |
| 6D4 (designed binder, N-Cap-(AR)3-C-Cap) DLGKKLLEAARAGQDDEVRILMANGADVNAADDYGSTPLHLAARSGHLEIVEVLLKHGADVNANDFIGDTPLHLAAYNGHLEIVEVLLKNGADVNATDITGETPLHLAAERGHLEIVEVLLKNGADVNTQDKFGKTAFDISIDNGNEDLAEILQKLN | 0.0042 nM | 0.0833 nM | 0.0513 nM | 0.0776 nM | 9.08e-05 s⁻¹ | 1.17e+06 M⁻¹ s⁻¹ | 0.0048 nM | – | – | – | – | – | – | – |
| 5H7 (designed binder, N-Cap-(AR)3-C-Cap) DLGKKLLEAARAGQDDEVRILMANGADVNAADMYGTTPQHLAARTGHLEIVEVLLKYGADVNAADFLGDTPLHLAAYHGHLEIVEVLLKHGADVNASDITGETPLHLAAHLGHLEIVEVLLKYGADVNAQDKFGKTAFDISIDNGNEDLAEILQKLN | 0.0429 nM | 0.132 nM | 0.527 nM | 0.263 nM | 0.000894 s⁻¹ | 3.4e+06 M⁻¹ s⁻¹ | 0.158 nM | – | – | – | – | – | – | – |
| 7C6 (designed binder, N-Cap-(AR)3-C-Cap) DLGKKLLEAARAGQDDEVRILMANGADVNAMDKYGSTPLHLAARSGHLEIVEVLLKHGADVNATDFIGDTPLHLAAYHGHLEIVEVLLKHGADVNAEDITGETPLHLAAESGHLEIVEVLLKHGADVNAQDKFGKTAFDISIDNGNEDLAEILQKLN | 0.0027 nM | 0.159 nM | 0.048 nM | 0.0464 nM | 0.000224 s⁻¹ | 4.82e+06 M⁻¹ s⁻¹ | 0.0106 nM | – | – | – | – | – | – | – |
| C06_6E9 (designed binder, ankyrin repeat protein; His-tagged, IMAC-purified) DLGKKLLEAARAGQDDEVRILMANGADVNAIDSDGTTPLHLAAMDGHLEIVEVLLKYGADVNAVDWNGDTPLHLAAVDGHLEIVEVLLKYGADVNAQDNLGDTPLHLAAYYGHLEIVEVLLKHGADVNASDFHGITPLHLAAFSGHLEIVEVLLKYGADVNAQDKFGKTAFDISIDNGNEDLAEILQKLN | – | – | – | – | – | – | – | 0.131 nM | 0.0006 nM | 0.0004 nM | 0.0749 nM | 7.16e-05 s⁻¹ | 956000 M⁻¹ s⁻¹ | 0.0076 nM |
| 6G11 (designed binder, N-Cap-(AR)3-C-Cap) DLGKKLLEAARAGQDDEVRILMANGADVNAEDILGITPLHLAAHHGHLEIVEVLLKHGADVNANDFAGYTPLHLAAVYGHLEIVEVLLKYGADVNATDAWGETPLHLAAYTGHLEIVEVLLKHDADVNAQDKFGKTAFDISIDNGNEDLAEILQKLN | 0.0198 nM | 0.282 nM | 1.21 nM | 0.106 nM | 8e-05 s⁻¹ | 754000 M⁻¹ s⁻¹ | 0.0101 nM | – | – | – | – | – | – | – |
| C06_53G6 (designed binder, ankyrin repeat protein; His-tagged, IMAC-purified) NLGKKLLEAARAGQDDEVRILMANGADVNATDDWGDTLLHLAATDGHLEIVEVLLKYGADVNANDAIGDTPLHLAALYGHLEIVEVLLKYGADVNATDLHGFTPLHLAAFWGHLEIVEVLLKHGADVNAQDKFGKTAFDISIDNGNEDLAEILQKLN | – | – | – | – | – | – | – | 0.135 nM | 0.0021 nM | 0.0009 nM | 0.0734 nM | 5.11e-05 s⁻¹ | 696000 M⁻¹ s⁻¹ | 0.0161 nM |
| 5B9 (designed binder, N-Cap-(AR)3-C-Cap) DLGKKLLEAARAGQDDEVRILMANGADVNATDVFGSTPLHLAARHGHLEIVEVLLKHGADVNATDFIGDTPLHLAAYHGHLEIVEVLLKHGADVNAKNGETPLHLAAYHGHPDIVEVLLKHGADVNAQDKFGKTAFDISIDNGNEDLAEILQKLN | 0.0165 nM | 0.372 nM | 0.653 nM | 0.169 nM | 0.000179 s⁻¹ | 1.06e+06 M⁻¹ s⁻¹ | 0.0134 nM | – | – | – | – | – | – | – |
| 10A6 (designed binder, N-Cap-(AR)2-C-Cap, only 2 ARs) DLGKKLLEAARAGQDDEVRILMANGADVNAIDHFDSTPLHLAARHGHLEIVEVLLKNGADVNADDFLGDTPLHLAAYHGHLDIVEVLLKHGADVNAQDKFGKTAFDISIDNGNEDLAEILQKLN | 0.008 nM | 0.123 nM | 1.93 nM | 0.0729 nM | 0.000201 s⁻¹ | 2.76e+06 M⁻¹ s⁻¹ | 0.0075 nM | – | – | – | – | – | – | – |
